Laboratory results: patent US8367389B2, “Methods, compositions and devices utilizing structurally stable cyanuric acid hydrolase” (Regents of the University of Minnesota, priority 2009, dated 2013)
Like-named read-outs stand apart in the source and are kept apart here.

Experiments:
[1] = biological target: T1, cyanuric acid hydrolase from M. thermoacetica (Moorella thermoacetica, UniProt Q2RGM7); assay: Metal chelator effects; format: biochemical, Moorella thermoacetica ATCC 39073; settings: for effect of chelator on activity: 5 mM chelator, 24 h incubation, room temperature
T1 construct: ORF Moth—2120 from M. thermoacetica ATCC 39073 was PCR amplified; His-tag (from pET28b+, cloned NdeI/HindIII) (N); made in house; host or cells: E. coli BRL21(DE3) pLysS, vector pET28b+::Moth_2120
T1 sequence (Q2RGM7 1-367): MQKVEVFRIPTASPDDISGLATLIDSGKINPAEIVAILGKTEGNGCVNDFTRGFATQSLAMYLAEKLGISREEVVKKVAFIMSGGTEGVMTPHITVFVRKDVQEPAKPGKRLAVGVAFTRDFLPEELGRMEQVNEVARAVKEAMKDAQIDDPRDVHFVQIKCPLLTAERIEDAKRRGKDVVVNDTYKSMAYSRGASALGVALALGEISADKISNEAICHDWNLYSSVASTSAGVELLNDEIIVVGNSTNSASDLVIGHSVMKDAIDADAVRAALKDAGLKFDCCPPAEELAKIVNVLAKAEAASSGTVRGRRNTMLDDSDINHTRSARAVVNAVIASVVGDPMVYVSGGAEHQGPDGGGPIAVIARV
Description: Metal chelator effects. Purified protein was incubated at room temperature with 5 mM 1,10-phenanthroline, 8-hydroxyquinoline-5-sulfonic acid, or ethylenediaminetetraacetic acid (EDTA) for 24 hours. PD-10 desalting columns (GE Healthcare) were used, as per the manufacturer's instructions, to remove the chelator from the enzyme. Enzymatic activity was measured with cyanuric acid as substrate, as described above.

[2] = biological target: T1, cyanuric acid hydrolase from M. thermoacetica; format: biochemical, Moorella thermoacetica ATCC 39073; settings: for activity as % of native activity: at higher concentrations (1.0 and 2.0 mM); for effect of metal on native enzyme activity: 0.2 mM
[3] = biological target: T2, Moorella cyanuric acid hydrolase (Moorella thermoacetica, UniProt Q2RGM7); assay: Substrate specificity analysis; format: biochemical, Moorella thermoacetica ATCC 39073
T2 construct: ORF Moth—2120 from M. thermoacetica ATCC 39073 was PCR amplified; His-tag (from pET28b+, cloned NdeI/HindIII) (N); made in house; host or cells: E. coli BRL21(DE3) pLysS, vector pET28b+::Moth_2120
T2 sequence (Q2RGM7 1-367): T1 sequence (Q2RGM7 1-367)
Description: (§1) Enzyme assay and kinetic constant determinations. Enzyme activity was monitored on a Beckman DU 640 spectrophotometer (Beckman Coulter, Fullerton, Calif.). Cyanuric acid and barbituric acid concentrations were measured at 214 nm (extinction coefficient=9200 cm^−1M^−1) and 256 nm, respectively. Reactions were carried out in 0.5 ml 25 mM Tris-HCl buffer, pH 8.0 with 100 μM cyanuric acid or barbituric acid at 30° C. Reactions were initiated by the addition of the enzyme. Kinetic parameters were determined by obtaining rates at cyanuric acid concentrations ranging from 10 to 110 μM. The data was plotted using Lineweaver-Burke plots.
Substrate specificity analysis. Seventeen compounds structurally analogous to cyanuric acid were tested as substrates: 5-nitrobarbituric acid, 5-methylbarbituric acid, 2-methylamino-4,6dihydroxy-s-triazine, 1,3,5-trimethoxy-s-triazine, 2-(3-methoxy propylamino)-4,6-dihydroxy-s-triazine, triphenoxy-s-triazine, 2-secbutyl-4,6-dihydroxy-s-triazine, N-phenyl ammelide, 2-ethylamino-4,6-dihydroxy-s-triazine, triisopropoxy-s-triazine, trimethyl isocyanurate, 1,3-dimethyl isocyanurate, hexazinone, 4,6-dihydroxy-2-mecapto pyrimidine, 4,6-dihydroxy-5-nitro-pyrimidine, barbituric acid and methyl isocyanurate. The compounds (100 μM) were incubated with 50 μg of purified enzyme in 25 mM Tris-HCl buffer (pH 8.0) for 30 min. Changes in the UV spectra were recorded. In cases where changes in the spectra were detected, an appropriate wavelength with absorbance differences between the substrate and product was chosen for further kinetic study. For N-methylisocyanurate, absorbance was measured at 214 nm (extinction coefficient=9500 cm^−1M^−1).

[4] = Enzyme assay and kinetic constant determinations (cyanuric acid, 214 nm); format: biochemical
Description: as §1

[5] = Effect of pH and temperature on enzymatic activity; format: biochemical
Description: Effect of pH and temperature on enzymatic activity. The optimum pH of the enzyme was determined at 30° C. with the following buffers: 25 mM […]; 25 mM Tris-HCl, pH 7-9; NaHCO3/Na2CO3, pH 9.5-10.5. The temperature optimum was determined by assaying the enzyme activity in 25 mM Tris-HCl, pH 8.0 at temperatures ranging from 25° C. to 70° C.

[6] = Temperature stability of the enzyme (30 min incubation prior to assay); format: biochemical
Description: FIG. 4. Stability of enzyme activity vs. temperature at pH 8.0 for purified cyanuric acid hydrolases from M. thermoacetica ATCC 39073 (●) compared with TrzD (▪) and AtzD (▴). Enzymes were maintained at the temperature indicated for 30 minutes prior to assay under standard conditions.
(§2) Temperature stability of the enzyme. The thermal stability of the enzyme was determined by incubating the enzyme at various temperatures for […] prior to activity determinations. Studies of the stability during storage were performed at 4° C. or −80° C. with or without additives. The additives were 0.2 mM of dithiothreitol (DTT), 10% ethylene glycol, 25% glycerol and 25% polyethylene glycol (PEG) 4000. The activity was checked every two weeks, as described above.

[7] = biological target: T3, cyanuric acid hydrolase from M. thermoacetica ATCC 39073 (Moorella thermoacetica, UniProt Q2RGM7); assay: Storage stability at 4° C. or −80° C. with or without additives; format: biochemical, Moorella thermoacetica ATCC 39073; settings: for Activity, 0 week: pH 8.0, 0 week; for Activity, 2 week: pH 8.0, 2 week; for Activity, 4 week: pH 8.0, 4 week; for Activity, 6 week: pH 8.0, 6 week; for Activity, 8 week: pH 8.0, 8 week
T3 construct: ORF Moth—2120 from M. thermoacetica ATCC 39073 was PCR amplified; His-tag (from pET28b+, cloned NdeI/HindIII) (N); made in house; host or cells: E. coli BRL21(DE3) pLysS, vector pET28b+::Moth_2120
T3 sequence (Q2RGM7 1-367): T1 sequence (Q2RGM7 1-367)
Description: as §2

[8] = cyanuric acid, published values, cited from earlier work

O=S(=O)(O)c1ccc(O)c2ncccc12 [8-hydroxyquinoline-5-sulfonic acid]
effect of chelator on activity [1]: failed to alter activity

[Ca+2].[Cl-].[Cl-] [CaCl2]
activity as % of native activity [2]: 121%
Relative activity ([2]; metal salt 1.0 mM): 121 ± 7

[Cl-].[Cl-].[Co+2] [CoCl2]
Relative activity [2]: 92 ± 5

[Cl][Cu][Cl] [CuCl2]
effect of metal on native enzyme activity [2]: slight decreases in activity
Relative activity ([2]; metal salt 0.2 mM): 83 ± 3

O=C(O)CN(CCN(CC(=O)O)CC(=O)O)CC(=O)O [EDTA, ethylenediaminetetraacetic acid]
effect of chelator on activity [1]: failed to alter activity

[Cl][Fe]([Cl])[Cl] [FeCl3]
Relative activity ([2]; metal salt 0.2 mM): 105 ± 4

[Cl-].[Cl-].[Mg+2] [MgCl2]
activity as % of native activity [2]: 119%
Relative activity ([2]; metal salt 2.0 mM): 119 ± 2

O=S(=O)([O-])[O-].[Mn+2] [MnSO4]
Relative activity ([2]; metal salt 0.2 mM): 96 ± 3

[Cl][Ni][Cl] [NiCl2]
effect of metal on native enzyme activity [2]: slight decreases in activity
Relative activity ([2]; metal salt 0.2 mM): 79 ± 3

O=S(=O)([O-])[O-].[Zn+2] [ZnSO4]
effect of metal on native enzyme activity [2]: greatest inhibitory affect
Relative activity ([2]; metal salt 0.2 mM): 51 ± 4

O=C1CC(=O)NC(=O)N1 [barbituric acid]
detectable activity with compound as substrate ([3]; 100 μM, even with 50 μg of protein in a single assay): did not show detectable activity

Cn1c(=O)[nH]c(=O)[nH]c1=O [methyl isocyanurate]
rate relative to the preferred substrate cyanuric acid [3]: less than 1%
rate of hydrolysis as substrate ([3]; 100 μM compound, 25 mM Tris-HCl pH 8.0): 0.13 µmol/min/mg

c1cnc2c(c1)ccc1cccnc12 [o-phenanthroline, 1,10-phenanthroline]
effect of chelator on activity [1]: failed to alter activity

B1: cyanuric acid hydrolase from M. thermoacetica ATCC 39073: recombinant His-tagged cyanuric acid hydrolase encoded by ORF Moth—2120 of Moorella thermoacetica ATCC 39073, expressed in E. coli (protein, listed as Moorella thermoacetica)
chain: T1 sequence (Q2RGM7 1-367)
modifications: His tag
notes: recombinant His-tagged cyanuric acid hydrolase encoded by ORF Moth—2120 of Moorella thermoacetica ATCC 39073, expressed in E. coli
specific activity with cyanuric acid ([4]; 100 μM cyanuric acid, 25 mM Tris-HCl pH 8.0, 30° C.): 15.7 µmol/min/mg
Km ([4]; cyanuric acid 10 to 110 μM, Lineweaver-Burke, read-out: Km with cyanuric acid as substrate): 110 µM
kcat ([4]; cyanuric acid as substrate): 10.6 s⁻¹
Known substrates [3]: Cyanuric acid, N-
Temp, optimum ([5]; 25 mM Tris-HCl pH 8.0, range 25-70° C.): 70 °C
pH optimum ([5]; 30° C., pH 5.5 to 10.5): 8.0
maximum activity at 70° C. ([5]; 70° C., pH 8.0): 24 μmol per min per mg protein
initial activity remaining after 30 min at 50° C. ([6]; 30 min, pH 8.0): stable
initial activity remaining after 30 min at 50° C. ([6]; 30 min, pH 8.0, listed as Moorella enzyme): 95%
initial activity remaining after 30 min at 70° C. ([6]; 70° C., 30 min, pH 8.0): 30%
Thermostability: temperature where activity above 50% after a 30 min incubation ([6]; pH 8.0, 30 min incubation): 20-65 °C
loss of activity after 8 weeks ([7]; both storage temperatures (4° C. and −80° C.)): no loss of activity
specific activity after 8 weeks as % of initial specific activity ([7]; stored at 4° C., 8 weeks): 142%
Activity, 0 week ([7]; stored at 4° C.): 11.9 ± 0.23 μmol per min per mg protein
Activity, 2 week ([7]; stored at 4° C.): 12.5 ± 0.2 μmol per min per mg protein
Activity, 4 week ([7]; stored at 4° C.): 15.9 ± 0.7 μmol per min per mg protein
Activity, 6 week ([7]; stored at 4° C.): 16.6 ± 0.9 μmol per min per mg protein
Activity, 8 week ([7]; stored at 4° C.): 16.9 ± 1^ μmol per min per mg protein
Activity, 0 week ([7]; stored at −80° C.): 11.9 ± 0.2 μmol per min per mg protein
Activity, 2 week ([7]; stored at −80° C.): 14.9 ± 0.1 μmol per min per mg protein
Activity, 4 week ([7]; stored at −80° C.): 14.3 ± 0.3 μmol per min per mg protein
Activity, 6 week ([7]; stored at −80° C.): 12.3 ± 0.4 μmol per min per mg protein
Activity, 8 week ([7]; stored at −80° C.): 11.7 ± 1.1 μmol per min per mg protein
Metal affects on activity [2]: Cu(II), Zn(I), Ni(II)
Influence of chelators on activity [1]: No affect EDTA, o-
kcat (literature) [8]: 10.6 s⁻¹
Km ([8]; read-out: Km (literature)): 110 µM
